Laboratory results published in patent US20210317176A1.

These substances were tested against beta-klotho (assay: cell-based or functional assay).

Question: With “hFc.L15.hFGF21(L98R, P171G, Y179S) (Fc fusion)” as the substance, how does the EC50 (ELK-luciferase assay) read?
Answer: 25.3 nM

Question: And the Efficacy (ELK-luciferase assay)?
Answer: 74.8%

Question: What does the source list for “hFc.L15.hFGF21(L98R, P171G, G182) (Fc fusion)”?
Answer: EC50 (ELK-luciferase assay): 6.5 nM; Efficacy (ELK-luciferase assay): 71.1%

Question: “hFc.L15.hFGF21(L98R, P171G, A180S) (Fc fusion)” was tested. Which EC50 (ELK-luciferase assay) did it give?
Answer: 2.18 nM

Question: What about the Efficacy (ELK-luciferase assay) of the same substance?
Answer: 84.7%

Question: What does the source list for MKEDD.hFGF21.L15.hFc (Fc fusion)?
Answer: EC50 (ELK-luciferase assay): 834 nM; Efficacy (ELK-luciferase assay): 83.1%

Question: With “hFc.L15.hFGF21(L98R, P171G, A180P) (Fc fusion)” as the substance, how does the EC50 (ELK-luciferase assay) read?
Answer: 617 nM

Question: What about the Efficacy (ELK-luciferase assay) of the same substance?
Answer: 77.1%

Question: “hFc.L15.hFGF21(L98R, P171G, S181A) (Fc fusion)” was tested. Which EC50 (ELK-luciferase assay) did it give?
Answer: 2.66 nM

Question: And the Efficacy (ELK-luciferase assay)?
Answer: 73.5%

Question: What does the source list for “hFc.L15.hFGF21(L98R, P171G, Y179G) (Fc fusion)”?
Answer: EC50 (ELK-luciferase assay): 61 nM; Efficacy (ELK-luciferase assay): 82.6%

Question: “hFc.L15.hFGF21(L98R, P171G, Y179A) (Fc fusion)” was tested. Which EC50 (ELK-luciferase assay) did it give?
Answer: 43.2 nM

Question: And the Efficacy (ELK-luciferase assay)?
Answer: 79.6%

Question: What does the source list for “hFc.L15.hFGF21(L98R, P171G, S181P, P182) (Fc fusion)”?
Answer: EC50 (ELK-luciferase assay): 272 nM; Efficacy (ELK-luciferase assay): 69.9%

Question: With “hFc.L15.hFGF21(L98R, P171G, GGGGG182-6) (Fc fusion)” as the substance, how does the EC50 (ELK-luciferase assay) read?
Answer: 4310 nM

Question: What about the Efficacy (ELK-luciferase assay) of the same substance?
Answer: 99.7%

Question: Which EC50 (ELK-luciferase assay) does the source give for “hFc.L15.hFGF21(L98R, P171G, S181T) (Fc fusion)” here?
Answer: 3.07 nM

Question: What about the Efficacy (ELK-luciferase assay) of the same substance?
Answer: 77.6%

Question: Which results are given for “hFc.L15.hFGF21(L98R, P171G, S181G) (Fc fusion)”?
Answer: EC50 (ELK-luciferase assay): 3.43 nM; Efficacy (ELK-luciferase assay): 77.3%

Question: Which results are given for “hFc.L15.hFGF21(L98R, P171G, A180G) (Fc fusion)”?
Answer: EC50 (ELK-luciferase assay): 3.25 nM; Efficacy (ELK-luciferase assay): 76.9%

Question: Which results are given for “hFc.L15.hFGF21(L98R, P171G, S181P) (Fc fusion)”?
Answer: EC50 (ELK-luciferase assay): 33.8 nM; Efficacy (ELK-luciferase assay): 79.5%

Question: Which results are given for “hFc.L15.hFGF21(L98R, P171G, 1-179) (Fc fusion)”?
Answer: EC50 (ELK-luciferase assay): 7.8 nM; Efficacy (ELK-luciferase assay): 77.4%

Question: What does the source list for “hFc.L15.hFGF21(L98R, P171G, S181K) (Fc fusion)”?
Answer: EC50 (ELK-luciferase assay): 130 nM; Efficacy (ELK-luciferase assay): 87.9%

Question: For “hFc.L15.hFGF21(1-178, L98R, P171G) (Fc fusion)”, which EC50 (ELK-luciferase assay) is on record?
Answer: 167 nM

Question: What about the Efficacy (ELK-luciferase assay) of the same substance?
Answer: 63.9%

Question: Which results are given for “hFc.L15.hFGF21(L98R, P171G, A180E) (Fc fusion)”?
Answer: EC50 (ELK-luciferase assay): 1.9 nM; Efficacy (ELK-luciferase assay): 79.6%

Question: Which results are given for “hFc.L15.hFGF21(L98R, P171G, P182) (Fc fusion)”?
Answer: EC50 (ELK-luciferase assay): 6.1 nM; Efficacy (ELK-luciferase assay): 85.9%

Question: How did the EC50 (ELK-luciferase assay) turn out when “hFc.L15.hFGF21(L98R, P171G, Y179P) (Fc fusion)” was run?
Answer: 428 nM

Question: And the Efficacy (ELK-luciferase assay)?
Answer: 44.4%

Question: For “hFc.L15.hFGF21(L98R, P171G, GG182-3) (Fc fusion)”, which EC50 (ELK-luciferase assay) is on record?
Answer: 1940 nM

Question: What about the Efficacy (ELK-luciferase assay) of the same substance?
Answer: 84.2%

Question: “hFc.L15.hFGF21(L98R, P171G, S181L) (Fc fusion)” was tested. Which EC50 (ELK-luciferase assay) did it give?
Answer: 3.46 nM

Question: And the Efficacy (ELK-luciferase assay)?
Answer: 72.6%

Question: Which EC50 (ELK-luciferase assay) does the source give for “hFc.L15.hFGF21(L98R, P171G, Y179F) (Fc fusion)” here?
Answer: 2.6 nM

Question: What about the Efficacy (ELK-luciferase assay) of the same substance?
Answer: 78.3%

Question: hFc.L15.hFGF21(L98R, P171G) (Fc fusion) was tested. Which EC50 (ELK-luciferase assay) did it give?
Answer: 2.5 nM

Question: And the Efficacy (ELK-luciferase assay)?
Answer: 76.1%
